Results as given in paper PMC9541495, “Understanding the interaction of 14‐3‐3 proteins with hDMX and hDM2: a structural and biophysical study” (The Febs Journal, 2022).
[ ]: non-standard residue; d: D form. pS = N[C@@H](COP(=O)(O)O)C(=O)O; FAM = 5,6-carboxyfluorescein; Ahx = NCCCCCC(=O)O

T1: 14‐3‐3η (human, UniProt Q04917 1-246)
T1 construct: 14-3-3 eta, human, full-length protein from the pProEx HTb-His-14-3-3 construct; Captured on an NTA chip in SPR; source: E. coli BL21(DE3), purified (Ni2+-NTA, dialysis)
T1 sequence (looked up): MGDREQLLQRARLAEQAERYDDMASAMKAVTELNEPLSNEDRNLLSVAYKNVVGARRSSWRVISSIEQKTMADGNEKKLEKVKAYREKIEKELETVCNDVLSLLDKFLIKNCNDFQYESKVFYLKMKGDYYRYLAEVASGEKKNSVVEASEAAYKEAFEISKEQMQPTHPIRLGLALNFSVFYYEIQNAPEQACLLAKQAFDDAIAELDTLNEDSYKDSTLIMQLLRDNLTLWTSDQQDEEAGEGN

T2: 14‐3‐3τ (human, UniProt P27348 1-245)
T2 construct: 14-3-3 tau/theta, human, full-length protein from the pProEx HTb-His-14-3-3 construct; Written as the protomer; tag removal is told only for the ∆C proteins; also called τ/θ; source: E. coli BL21(DE3), purified (Ni2+-NTA, dialysis)
T2 sequence (looked up): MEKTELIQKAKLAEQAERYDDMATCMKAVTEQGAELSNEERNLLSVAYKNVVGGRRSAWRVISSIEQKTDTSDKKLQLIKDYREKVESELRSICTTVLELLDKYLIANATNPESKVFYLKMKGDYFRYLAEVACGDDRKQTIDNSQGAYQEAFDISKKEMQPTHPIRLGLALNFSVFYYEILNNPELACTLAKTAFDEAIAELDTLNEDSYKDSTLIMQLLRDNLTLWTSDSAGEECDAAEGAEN

T3: 14‐3‐3ε (human, UniProt P62258 1-255)
T3 construct: 14-3-3 epsilon, human, full-length protein from the pProEx HTb-His-14-3-3 construct; Written as the protomer; tag removal is told only for the ∆C proteins; source: E. coli BL21(DE3), purified (Ni2+-NTA, dialysis)
T3 sequence (looked up): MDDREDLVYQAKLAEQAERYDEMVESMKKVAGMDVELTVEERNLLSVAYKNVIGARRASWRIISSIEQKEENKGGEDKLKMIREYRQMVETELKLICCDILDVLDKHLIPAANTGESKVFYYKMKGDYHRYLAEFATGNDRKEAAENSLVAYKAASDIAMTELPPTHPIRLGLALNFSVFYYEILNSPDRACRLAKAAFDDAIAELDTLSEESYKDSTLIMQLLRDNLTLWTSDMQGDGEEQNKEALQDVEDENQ

T4: 14‐3‐3σ (human, UniProt P31947 1-248)
T4 construct: 14-3-3 sigma, human, full-length protein from the pProEx HTb-His-14-3-3 construct (used in the FA assays); Written as the protomer; tag removal is told only for the ∆C proteins; source: E. coli BL21(DE3), purified (Ni2+-NTA, dialysis)
T4 sequence (looked up): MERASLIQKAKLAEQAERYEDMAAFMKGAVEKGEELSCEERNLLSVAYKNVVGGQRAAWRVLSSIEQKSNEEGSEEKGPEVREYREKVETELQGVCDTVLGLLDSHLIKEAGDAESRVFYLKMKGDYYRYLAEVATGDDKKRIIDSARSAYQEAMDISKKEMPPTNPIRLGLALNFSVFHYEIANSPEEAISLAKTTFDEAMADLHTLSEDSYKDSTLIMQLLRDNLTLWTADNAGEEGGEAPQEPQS

T5: 14‐3‐3ζ (human, UniProt P63104 1-245)
T5 construct: 14-3-3 zeta, human, full-length protein from the pProEx HTb-His-14-3-3 construct; Written as the protomer; tag removal is told only for the ∆C proteins; source: E. coli BL21(DE3), purified (Ni2+-NTA, dialysis)
T5 sequence (looked up): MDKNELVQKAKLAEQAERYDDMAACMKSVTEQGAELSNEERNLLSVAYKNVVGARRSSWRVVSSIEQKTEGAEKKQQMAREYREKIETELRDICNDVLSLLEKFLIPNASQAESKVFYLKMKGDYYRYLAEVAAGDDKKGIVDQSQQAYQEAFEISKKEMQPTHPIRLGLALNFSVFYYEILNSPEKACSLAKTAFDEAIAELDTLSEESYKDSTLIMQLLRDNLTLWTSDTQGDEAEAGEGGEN

B1: Ac‐hDMX_(335‐373) ^pSer342/pSer367 (peptide)
peptide: Ac-SKLTHSL[pS]TSDITAIPEKENEGNDVPDCRRTI[pS]APVVRP-NH2
SMILES: CC[C@H](C)[C@H](NC(=O)[C@H](CC(=O)O)NC(=O)[C@H](CO)NC(=O)[C@@H](NC(=O)[C@H](COP(=O)(O)O)NC(=O)[C@H](CC(C)C)NC(=O)[C@H](CO)NC(=O)[C@H](Cc1c[nH]cn1)NC(=O)[C@@H](NC(=O)[C@H](CC(C)C)NC(=O)[C@H](CCCCN)NC(=O)[C@H](CO)NC(C)=O)[C@@H](C)O)[C@@H](C)O)C(=O)N[C@H](C(=O)N[C@@H](C)C(=O)N[C@H](C(=O)N1CCC[C@H]1C(=O)N[C@@H](CCC(=O)O)C(=O)N[C@@H](CCCCN)C(=O)N[C@@H](CCC(=O)O)C(=O)N[C@@H](CC(N)=O)C(=O)N[C@@H](CCC(=O)O)C(=O)NCC(=O)N[C@@H](CC(N)=O)C(=O)N[C@@H](CC(=O)O)C(=O)N[C@H](C(=O)N1CCC[C@H]1C(=O)N[C@@H](CC(=O)O)C(=O)N[C@@H](CS)C(=O)N[C@@H](CCCNC(=N)N)C(=O)N[C@@H](CCCNC(=N)N)C(=O)N[C@H](C(=O)N[C@H](C(=O)N[C@@H](COP(=O)(O)O)C(=O)N[C@@H](C)C(=O)N1CCC[C@H]1C(=O)N[C@H](C(=O)N[C@H](C(=O)N[C@@H](CCCNC(=N)N)C(=O)N1CCC[C@H]1C(N)=O)C(C)C)C(C)C)[C@@H](C)CC)[C@@H](C)O)C(C)C)[C@@H](C)CC)[C@@H](C)O
notes: hDMX (human double minute 4 protein, hDM4), human, residues 335-373; Acetylated form used for ITC, SPR and crystallography; source: synthetic peptide (Fmoc SPPS on Rink amide ProTide resin, HPLC purified)
B2: Ac‐hDMX_(361‐374) ^pSer367 (peptide)
peptide: Ac-DCRRTI[pS]APVVRPK-NH2
SMILES: CC[C@H](C)[C@H](NC(=O)[C@@H](NC(=O)[C@H](CCCNC(=N)N)NC(=O)[C@H](CCCNC(=N)N)NC(=O)[C@H](CS)NC(=O)[C@H](CC(=O)O)NC(C)=O)[C@@H](C)O)C(=O)N[C@@H](COP(=O)(O)O)C(=O)N[C@@H](C)C(=O)N1CCC[C@H]1C(=O)N[C@H](C(=O)N[C@H](C(=O)N[C@@H](CCCNC(=N)N)C(=O)N1CCC[C@H]1C(=O)N[C@@H](CCCCN)C(N)=O)C(C)C)C(C)C
notes: Acetylated form used for ITC, SPR and crystallography; source: synthetic peptide (Fmoc SPPS, HPLC purified)
B3: 14‐3‐3β (natural protein, human, UniProt P31946 1-246, looked up)
chain: MTMDKSELVQKAKLAEQAERYDDMAAAMKAVTEQGHELSNEERNLLSVAYKNVVGARRSSWRVISSIEQKTERNEKKQQMGKEYREKIEAELQDICNDVLELLDKYLIPNATQPESKVFYLKMKGDYFRYLSEVASGDNKQTTVSNSQQAYQEAFEISKKEMQPTHPIRLGLALNFSVFYYEILNSPEKACSLAKTAFDEAIAELDTLNEESYKDSTLIMQLLRDNLTLWTSENQGDEGDAGEGEN
notes: 14-3-3 beta, human, full-length protein from the pProEx HTb-His-14-3-3 construct; Written as the protomer; tag removal is told only for the ∆C proteins; source: E. coli BL21(DE3), purified (Ni2+-NTA, dialysis)
B4: Ac‐hDMX_(335‐349) ^pSer342 (peptide)
peptide: Ac-SKLTHSL[pS]TSDITAI-NH2
SMILES: CC[C@H](C)[C@H](NC(=O)[C@H](C)NC(=O)[C@@H](NC(=O)[C@@H](NC(=O)[C@H](CC(=O)O)NC(=O)[C@H](CO)NC(=O)[C@@H](NC(=O)[C@H](COP(=O)(O)O)NC(=O)[C@H](CC(C)C)NC(=O)[C@H](CO)NC(=O)[C@H](Cc1c[nH]cn1)NC(=O)[C@@H](NC(=O)[C@H](CC(C)C)NC(=O)[C@H](CCCCN)NC(=O)[C@H](CO)NC(C)=O)[C@@H](C)O)[C@@H](C)O)[C@@H](C)CC)[C@@H](C)O)C(N)=O
notes: hDMX (human double minute 4 protein, hDM4), human, residues 335-349; Acetylated form used for ITC and SPR; source: synthetic peptide (Fmoc SPPS, HPLC purified)
B5: 14‐3‐3γ (natural protein, human, UniProt P61981 1-247, looked up)
chain: MVDREQLVQKARLAEQAERYDDMAAAMKNVTELNEPLSNEERNLLSVAYKNVVGARRSSWRVISSIEQKTSADGNEKKIEMVRAYREKIEKELEAVCQDVLSLLDNYLIKNCSETQYESKVFYLKMKGDYYRYLAEVATGEKRATVVESSEKAYSEAHEISKEHMQPTHPIRLGLALNYSVFYYEIQNAPEQACHLAKTAFDDAIAELDTLNEDSYKDSTLIMQLLRDNLTLWTSDQQDDDGGEGNN
notes: 14-3-3 gamma, human, full-length protein from the pProEx HTb-His-14-3-3 construct; Written as the protomer; tag removal is told only for the ∆C proteins; source: E. coli BL21(DE3), purified (Ni2+-NTA, dialysis)
B6: FAM‐Ahx‐hDMX_(335‐373) ^pSer342/pSer367 (peptide)
peptide: {FAM-Ahx}-SKLTHSL[pS]TSDITAIPEKENEGNDVPDCRRTI[pS]APVVRP-NH2
notes: hDMX (human double minute 4 protein, hDM4), human, residues 335-373; Tracer form used in the FA assays; source: synthetic peptide (Fmoc SPPS on Rink amide ProTide resin, HPLC purified)

Key:
Details in all cases: both partners purified
14‐3‐3η [1] = target: T1, 14‐3‐3η; assay: SPR; 14-3-3η immobilised on an NTA sensor chip (Ni2+ capture and amine coupling, about 2000 RU); acetylated peptides injected, 11 serial dilutions from 10x the FA Kd; 25 °C; Biacore T200; multicycle kinetics fitted to a Langmuir model, Kd from steady state dose-response
14‐3‐3η [2] = target: T1, 14‐3‐3η; assay: ITC; acetylated peptide in the syringe titrated into 14-3-3η in the cell; 25 °C; 25 mM HEPES pH 7.5, 100 mM NaCl, 10 mM MgCl2, 0.5 mM TCEP; MicroCal iTC200
[3] = target: B6; assay: fluorescence polarisation; fluorescence anisotropy, direct titration: 14-3-3 protein titrated (1/2 dilution series) against 50 nM FAM-Ahx tracer peptide; 10 mM HEPES, 150 mM NaCl, 0.1% Tween 20, 0.1% BSA, pH 7.4; 384 well plates, triplicates; protein concentration as 14-3-3 monomer; 1:1 fit, biphasic curves fitted as two separate 1:1 events (Kd1, Kd2)
[4] = target: T6, FAM‐Ahx‐hDM2_(160‐192) ^pSer166/pSer186 (human, phosphoserine at 166 and at 186; N-terminal FAM-Ahx (5,6-carboxyfluorescein on an aminohexanoic acid linker); C-terminal amide); assay: as above
T6 construct: hDM2 (human double minute 2 protein), human, residues 160-192; Tracer form used in the FA assays; source: synthetic peptide (Fmoc SPPS on Rink amide ProTide resin, HPLC purified)

14‐3‐3τ = target: T2, 14‐3‐3τ; assay: as above
14‐3‐3ε = target: T3, 14‐3‐3ε; assay: as above
14‐3‐3σ = target: T4, 14‐3‐3σ; assay: as above
14‐3‐3ζ = target: T5, 14‐3‐3ζ; assay: as above

Row | Binder | Kd (14‐3‐3η [1]) [nM] | koff (14‐3‐3η [1]) [s⁻¹] | kon (14‐3‐3η [1]) [M⁻¹ s⁻¹] | Kd (14‐3‐3η [2]) [nM] | dH (14‐3‐3η [2]) [kcal/mol] | stoichiometry N (14‐3‐3η [2]) | Kd1 (first binding event) [3] [µM] | also measured
1 | B1 | 8.6 | 0.0048 | 1.51e+06 | 14 ± 10 | -5.28 ± 0.167 | 0.94 |  | 
2 | B2 | 189 | 0.121 | 389000 | 870 ± 95 | -3.85 ± 0.0478 | 1.28 |  | 
3 | B3 |  |  |  |  |  |  | 0.026 ± 0.099 | 
4 | B4 | 37000 |  |  | 21000 ± 3000 | -5.11 ± 0.239 | 0.72 |  | 
5 | B5 |  |  |  |  |  |  | 0.091 ± 0.015 | Kd1 (first binding event) [4]: 0.089 ± 0.01 µM
6 | B6 |  |  |  |  |  |  |  | binding result (14‐3‐3τ): binds; binding result (14‐3‐3ε): binds; binding result (14‐3‐3σ): binds; binding result (14‐3‐3ζ): binds
